Consider two molecules from PMC7691508 (Nature Communications, 2020).

Series [1] concerns the molecule itself. The experiment in a line: native gel or EMSA. In general terms: In EMSA bound probe runs differently from free probe, usually more slowly.
Series [2] concerns the target T1, IFN regulatory factor 3 (IRF3) (mouse (endogenous in peritoneal macrophages, RAW264.7, L929, MEFs)), P70671.
T1 chain: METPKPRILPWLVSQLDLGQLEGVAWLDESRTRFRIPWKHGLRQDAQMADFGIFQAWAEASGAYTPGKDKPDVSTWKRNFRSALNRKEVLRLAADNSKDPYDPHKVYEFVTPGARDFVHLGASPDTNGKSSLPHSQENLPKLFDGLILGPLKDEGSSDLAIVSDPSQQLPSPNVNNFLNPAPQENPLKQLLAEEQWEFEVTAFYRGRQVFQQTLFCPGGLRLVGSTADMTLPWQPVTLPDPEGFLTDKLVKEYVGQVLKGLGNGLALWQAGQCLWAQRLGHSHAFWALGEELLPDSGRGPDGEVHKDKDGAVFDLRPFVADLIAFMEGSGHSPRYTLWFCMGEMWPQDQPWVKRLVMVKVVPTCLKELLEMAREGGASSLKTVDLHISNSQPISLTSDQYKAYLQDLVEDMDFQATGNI
Kind of series: native gel or EMSA. Conditions: remark: other sources report otherwise.

B1: stimulator of interferon genes (STING) (natural protein)
chain: MPYSNLHPAIPRPRGHRSKYVALIFLVASLMILWVAKDPPNHTLKYLALHLASHELGLLLKNLCCLAEELCHVQSRYQGSYWKAVRACLGCPIHCMAMILLSSYFYFLQNTADIYLSWMFGLLVLYKSLSMLLGLQSLTPAEVSAVCEEKKLNVAHGLAWSYYIGYLRLILPGLQARIRMFNQLHNNMLSGAGSRRLYILFPLDCGVPDNLSVVDPNIRFRDMLPQQNIDRAGIKNRVYSNSVYEILENGQPAGVCILEYATPLQTLFAMSQDAKAGFSREDRLEQAKLFCRTLEEILEDVPESRNNCRLIVYQEPTDGNSFSLSQEVLRHIRQEEKEEVTMNAPMTSVAPPPSVLSQEPRLLISGMDQPLPLRTDLI
Regarding B1, the stoichiometry N (usually the number of molecules, sites or subunits per partner or assembly) in series [1] worked out at 2.

B2: IFN regulatory factor 3 (IRF3), P70671 1-419 (natural protein)
chain: METPKPRILPWLVSQLDLGQLEGVAWLDESRTRFRIPWKHGLRQDAQMADFGIFQAWAEASGAYTPGKDKPDVSTWKRNFRSALNRKEVLRLAADNSKDPYDPHKVYEFVTPGARDFVHLGASPDTNGKSSLPHSQENLPKLFDGLILGPLKDEGSSDLAIVSDPSQQLPSPNVNNFLNPAPQENPLKQLLAEEQWEFEVTAFYRGRQVFQQTLFCPGGLRLVGSTADMTLPWQPVTLPDPEGFLTDKLVKEYVGQVLKGLGNGLALWQAGQCLWAQRLGHSHAFWALGEELLPDSGRGPDGEVHKDKDGAVFDLRPFVADLIAFMEGSGHSPRYTLWFCMGEMWPQDQPWVKRLVMVKVVPTCLKELLEMAREGGASSLKTVDLHISNSQPISLTSDQYKAYLQDLVEDMDFQATGNI
Consider B2, for which the stoichiometry N in series [2] was 2.
